Molecular target: T1, DYNLL1 (Homo sapiens, UniProt P63167)
T1 construct: 6xHis (N); made in house; host or cells: E. coli BL21(DE3)Star
Assay: Isothermal titration calorimetry of peptide/protein binding to DYNLL1
Settings: ITC binding enthalpy, PBS + 3 mM 2-mercaptoethanol pH 7.4, 299 K
Procedure: Binding parameters of the in vitro evolved Ac-[…] and naturally evolved Ac-DKSTQTD consensus peptides were determined by isothermal titration calorimetry (ITC). Synthetic peptides were used and N-terminal acetylation was applied to better mimic a non-terminal peptide motif by avoiding the positively charged N-terminus. In order to elucidate the particular contribution of Val-5 to the binding affinity, several control peptides were produced. The in vitro evolved Val-5 was replaced with a glycine (Gly-5) to assess side chain function. In a further truncated variant the entire amino acid residue was replaced with an acetate group (Ac-5) to assess the function of the amide group at position −5. The same variations of Val-5, Gly-5 or Ac-5 were also introduced in the framework of the naturally evolved consensus peptide. DYNNL1 binding of all six variants was analyzed by ITC. In all measurements the stoichiometry of binding was 1∶1 (2 peptides binding to one homodimer DYNNL1). […]
All peptides and DYNLL1 were dialyzed overnight in PBS buffer supplemented with 3 mM 2-mercaptoethanol (pH 7.4). […] For each experiment the thermodynamic parameters were determined at 299 K. We used a VP-ITC instrument from Microcal and the data were fitted by the software package Origin 5.0 (OriginLab) using the simple A + B to AB binding model. […]

T1 sequence (P63167 whole entry): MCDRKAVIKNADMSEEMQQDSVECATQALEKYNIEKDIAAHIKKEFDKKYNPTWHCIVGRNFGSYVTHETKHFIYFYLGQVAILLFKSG

ΔH: -7.74 kcal/mol
B1: EML3 (8-94): recombinant fragment of EML3 (residues 8–94) containing a coiled coil domain and the in vitro evolved consensus motif (protein, UniProt Q32P44 8-94, looked up, fragment)
chain: GDGPAREALQSLSQRLRVQEQEMELVKAALAEALRLLRLQVPPSSLQGSGTPAPPGDSLAAPPGLPPTCTPSLVSRGTQTETEVELK

Reference: PMC3078936 (PLoS ONE, 2011)
